Where no end group is shown, it is not given here.
Biological target: T1, anti-TNFα antibody-Fab (IgG-Fab derived from anti-TNFα monoclonal antibody, adalimumab) (Homo sapiens, UniProt P01834+P01857)
T1 construct: cleaving a humanized monoclonal IgG formulation as a starting material into a Fab fragment and an Fc fragment by papain; purchased
Experiment: Biacore 3000 surface plasmon resonance, affinity of SpG-β1 mutants for immobilized IgG-Fab
Type: binding
Settings: for affinity / binding ability for the IgG-Fab compared with the wild-type (in words): Tables 1 and 3, FIGS. 2 and 3

[1] = Table 2, Example 3, GST-fused one-domain peptide
[2] = Table 2, Example 3, GST-fused one-domain peptide, 25° C., pH 7.4
[3] = Table 2, Example 3, fold of wild-type KA, GST-fused one-domain peptide
[4] = Table 3, Example 4, GST-cleaved type (Pep-), constructs Pep.1d, Pep.1dC, Pep.2dC
[5] = Table 3, Example 4, fold of wild-type KA of the same construct type

Substance: K13T/E19I/V21D/K28I/F30L/K31R/D47H: GST-fused one-domain SpG-β1 mutant, amino acid SEQ ID NO: 75 (TTYKLILNGKTLTGETTTIADDAATAEIVLRQYANDNGVDGEWTYDHATKTFTVTE; also: GST-fused)
- KA [1]: 1.39e+06 M⁻¹
- koff [2]: 0.0068 s⁻¹
- kon [2]: 95000 s/M
- KA Vs. Wild [3]: 3.7

Substance: K13T/E19I/A23T/T25M/F30L: GST-fused one-domain SpG-β1 mutant, amino acid SEQ ID NO: 49 (TTYKLILNGKTLTGETTTIAVDTAMAEKVLKQYANDNGVDGEWTYDDATKTFTVTE; also: GST-fused)
- KA [1]: 1.12e+06 M⁻¹
- koff [2]: 0.0091 s⁻¹
- kon [2]: 102000 s/M
- KA Vs. Wild [3]: 3.0

Substance: K13T/E19I/E27D/F30L/K31R: GST-fused one-domain SpG-β1 mutant, amino acid SEQ ID NO: 35 (TTYKLILNGKTLTGETTTIAVDAATADKVLRQYANDNGVDGEWTYDDATKTFTVTE; also: GST-fused)
- KA [1]: 2.74e+06 M⁻¹
- kon [2]: 150000 s/M
- KA Vs. Wild [3]: 7.3

Substance: K13T/E19I/V21N/K28I/F30L: GST-fused one-domain SpG-β1 mutant, amino acid SEQ ID NO: 37 (TTYKLILNGKTLTGETTTIANDAATAEIVLKQYANDNGVDGEWTYDDATKTFTVTE; also: GST-fused)
- KA [1]: 3.01e+06 M⁻¹
- koff [2]: 0.0071 s⁻¹
- kon [2]: 214000 s/M
- KA Vs. Wild [3]: 8.1

Substance: K13T/E19I/K28R/F30L/Y33F: GST-fused one-domain SpG-β1 mutant, amino acid SEQ ID NO: 27 (TTYKLILNGKTLTGETTTIAVDAATAERVLKQFANDNGVDGEWTYDDATKTFTVTE; also: GST-fused)
- KA [1]: 2.02e+06 M⁻¹
- kon [2]: 85500 s/M
- KA Vs. Wild [3]: 5.4

Substance: K13T/E19I/F30L/Y45F/D47Y: GST-fused one-domain SpG-β1 mutant, amino acid SEQ ID NO: 83 (TTYKLILNGKTLTGETTTIAVDAATAEKVLKQYANDNGVDGEWTFDYATKTFTVTE; also: GST-fused)
- KA [1]: 1.39e+06 M⁻¹
- koff [2]: 0.007 s⁻¹
- kon [2]: 97700 s/M
- KA Vs. Wild [3]: 3.7

Substance: K13T/E19I/Y33F/N35Y/V39L: GST-fused one-domain SpG-β1 mutant, amino acid SEQ ID NO: 41 (TTYKLILNGKTLTGETTTIAVDAATAEKVFKQFAYDNGLDGEWTYDDATKTFTVTE; also: GST-fused)
- KA [1]: 1.87e+06 M⁻¹
- koff [2]: 0.0049 s⁻¹
- kon [2]: 90500 s/M
- KA Vs. Wild [3]: 5.0

Substance: K13T/E15T/E19I/T25M/E27G/F30L/N35Y: GST-fused one-domain SpG-β1 mutant, amino acid SEQ ID NO: 63 (TTYKLILNGKTLTGTTTTIAVDAAMAGKVLKQYAYDNGVDGEWTYDDATKTFTVTE; also: GST-fused)
- KA [1]: 1.28e+06 M⁻¹
- koff [2]: 0.0063 s⁻¹
- kon [2]: 80700 s/M
- KA Vs. Wild [3]: 3.4

Substance: K13T/E19I/K28N/F30L/D40V: GST-fused one-domain SpG-β1 mutant, amino acid SEQ ID NO: 33 (TTYKLILNGKTLTGETTTIAVDAATAENVLKQYANDNGVVGEWTYDDATKTFTVTE; also: GST-fused)
- KA [1]: 1.43e+06 M⁻¹
- kon [2]: 108000 s/M
- KA Vs. Wild [3]: 3.8

Substance: K13T/E19I/K28N/E42K: GST-fused one-domain SpG-β1 mutant, amino acid SEQ ID NO: 39 (TTYKLILNGKTLTGETTTIAVDAATAENVFKQYANDNGVDGKWTYDDATKTFTVTE; also: GST-fused)
- KA [1]: 1.1e+06 M⁻¹
- koff [2]: 0.0124 s⁻¹
- kon [2]: 137000 s/M
- KA Vs. Wild [3]: 3.0

Substance: K13T/E19I/K28N/F30L/Y33F: GST-fused one-domain SpG-β1 mutant, amino acid SEQ ID NO: 53 (TTYKLILNGKTLTGETTTIAVDAATAENVLKQFANDNGVDGEWTYDDATKTFTVTE; also: GST-fused)
- KA [1]: 1.44e+06 M⁻¹
- koff [2]: 0.0061 s⁻¹
- kon [2]: 88000 s/M
- KA Vs. Wild [3]: 3.9

Substance: Pep.1dC K10R/K13T/T18A/E19I/V21D/T25M/F30L/Y33F/N35F/D47A (TTYKLILNGRTLTGETTAIADDAAMAEKVLKQFAFDNGVDGEWTYDAATKTFTVTE)
- KA [4]: 1.56e+07 M⁻¹
- koff [4]: 0.0062 s⁻¹
- kon [4]: 97700 s/M
- KA Vs. Wild [5]: 88

Substance: Pep.2dC K13T/E19I/V21D/T25M/F30L/Y33F/N35F/D47A (TTYKLILNGKTLTGETTTIADDAAMAEKVLKQFAFDNGVDGEWTYDAATKTFTVTE)
- KA [4]: 9.68e+06 M⁻¹
- koff [4]: 0.0058 s⁻¹
- kon [4]: 55700 s/M
- KA Vs. Wild [5]: 29

Substance: K13T/E19I/V21D/T25M/F30L/Y33F/N35F/D47A: GST-fused one-domain SpG-β1 mutant, amino acid SEQ ID NO: 55 (TTYKLILNGKTLTGETTTIADDAAMAEKVLKQFAFDNGVDGEWTYDAATKTFTVTE; also: GST-fused)
- KA [1]: 3.47e+06 M⁻¹
- koff [2]: 0.003 s⁻¹
- kon [2]: 104000 s/M
- KA Vs. Wild [3]: 9.3

Substance: Pep.1d K10R/K13T/T18A/E19I/V21D/T25M/F30L/Y33F/N35F/D47A: SpG-β1 mutant, SEQ ID NO: 87, GST-cleaved one domain type (TTYKLILNGRTLTGETTAIADDAAMAEKVLKQFAFDNGVDGEWTYDAATKTFTVTE; SpG mutant)
- affinity constant (KA), order of magnitude (Example 4, GST-cleaved one domain type): ~10^7 M^−1
- KA [4]: 1.19e+07 M⁻¹
- koff [4]: 0.0117 s⁻¹
- kon [4]: 138000 s/M
- KA Vs. Wild [5]: 83
- KA Vs. Wild (Table 3, Example 4, fold of wild-type KA of the same construct type, listed as Pep-SpGβ1-K10R/K13T/T18A/E19I/V21D/T25M/F30L/Y33F/N35F/D47A.1d): ≥ 80
- affinity / binding ability for the IgG-Fab compared with the wild-type (in words): significantly higher affinity for the IgG-Fab than Pep-SpGβ1-Wild.1d

Substance: K13T/E19I/F30L/Y33F: GST-fused one-domain SpG-β1 mutant, amino acid SEQ ID NO: 47 (TTYKLILNGKTLTGETTTIAVDAATAEKVLKQFANDNGVDGEWTYDDATKTFTVTE; also: GST-fused)
- KA [1]: 1.59e+06 M⁻¹
- koff [2]: 0.0067 s⁻¹
- kon [2]: 106000 s/M
- KA Vs. Wild [3]: 4.3

Substance: Pep.2dC K10R/K13T/T18A/E19I/V21D/T25M/F30L/Y33F/N35F/D47A: SpG-β1 mutant, SEQ ID NO: 87, GST-cleaved two domain type with Cys at the C-terminus
- KA [4]: 8.56e+07 M⁻¹
- koff [4]: 0.0014 s⁻¹
- kon [4]: 117000 s/M
- KA Vs. Wild [5]: 253
- KA Vs. Wild (Table 3, Example 4, fold of wild-type KA of the same construct type, listed as Pep-SpGβ1-K10R/K13T/T18A/E19I/V21D/T25M/F30L/Y33F/N35F/D47A.2dC): ≥ 200

Substance: K13T/E19I/A23T/F30L/Y33F/D47N/K50R: GST-fused one-domain SpG-β1 mutant, amino acid SEQ ID NO: 45 (TTYKLILNGKTLTGETTTIAVDTATAEKVLKQFANDNGVDGEWTYDNATRTFTVTE; also: GST-fused)
- KA [1]: 2.63e+06 M⁻¹
- koff [2]: 0.0046 s⁻¹
- kon [2]: 120000 s/M
- KA Vs. Wild [3]: 7.0

Substance: K13T/D22N/A23T/T25S/F30L/A48T: GST-fused one-domain SpG-β1 mutant, amino acid SEQ ID NO: 73 (TTYKLILNGKTLTGETTTEAVNTASAEKVLKQYANDNGVDGEWTYDDTTKTFTVTE; also: GST-fused)
- KA [1]: 1.06e+06 M⁻¹
- koff [2]: 0.0098 s⁻¹
- kon [2]: 104000 s/M
- KA Vs. Wild [3]: 2.8

Substance: K13T/E19I/F30L/D47N: GST-fused one-domain SpG-β1 mutant, amino acid SEQ ID NO: 43 (TTYKLILNGKTLTGETTTIAVDAATAEKVLKQYANDNGVDGEWTYDNATKTFTVTE; also: GST-fused)
- KA [1]: 1.27e+06 M⁻¹
- koff [2]: 0.0073 s⁻¹
- kon [2]: 92600 s/M
- KA Vs. Wild [3]: 3.4

Substance: Pep.1d K13T/T18A/E19I/V21A/K28I/F30L/Y33F/V39I: SpG-β1 mutant, SEQ ID NO: 85, GST-cleaved one domain type (TTYKLILNGKTLTGETTAIAADAATAEIVLKQFANDNGIDGEWTYDDATKTFTVTE; SpG mutant)
- KA [4]: 5.34e+06 M⁻¹
- koff [4]: 0.0207 s⁻¹
- kon [4]: 111000 s/M
- KA Vs. Wild [5]: 37
- affinity / binding ability for the IgG-Fab compared with the wild-type (in words): significantly higher affinity for the IgG-Fab than Pep-SpGβ1-Wild.1d

Substance: K13T/E19I/A23D/V39L: GST-fused one-domain SpG-β1 mutant, amino acid SEQ ID NO: 31 (TTYKLILNGKTLTGETTTIAVDDATAEKVFKQYANDNGLDGEWTYDDATKTFTVTE; also: GST-fused)
- KA [1]: 1.36e+06 M⁻¹
- kon [2]: 84300 s/M
- KA Vs. Wild [3]: 3.6

Substance: Pep.2dC K13T/T18A/E19I/V21A/K28I/F30L/Y33F/V39I (TTYKLILNGKTLTGETTAIAADAATAEIVLKQFANDNGIDGEWTYDDATKTFTVTE)
- KA [4]: 1.02e+07 M⁻¹
- koff [4]: 0.0062 s⁻¹
- kon [4]: 63900 s/M
- KA Vs. Wild [5]: 30

Substance: K13T/E19I/F30L/D47A/K50E: GST-fused one-domain SpG-β1 mutant, amino acid SEQ ID NO: 65 (TTYKLILNGKTLTGETTTIAVDAATAEKVLKQYANDNGVDGEWTYDAATETFTVTE; also: GST-fused)
- KA [1]: 1.14e+06 M⁻¹
- koff [2]: 0.0062 s⁻¹
- kon [2]: 70900 s/M
- KA Vs. Wild [3]: 3.1
